Tested on: K4 kissing-loop RNA reporter
Assay: apparent KD of K4 kissing-loop reporter; higher = weaker reporter binding
Conditions: Eterna round: R107
Experimental: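 RNA-MaP round R107: designed RNA switches with theophylline, tryptophan, arginine or FMN aptamers are transcribed on-chip within common flanks. They are titrated with a labelled K4 kissing-loop RNA reporter in RNA-MaP buffer (100 mM Tris pH 7.5, 80 mM KCl, 4 mM MgCl2), without ligand or with the indicated ligand. Median apparent KD per design.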

[1] = input ligand: theophylline 20 uM
[2] = input ligand: tryptophan 2.4 mM
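Further: bound reporter read as fluorescence of individual clusters on recovered sequencing chips by microscopy, with normalized cluster intensities fitted with a binding model.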

Sequence	apparent KD of K4 kissing-loop reporter (input ligand: FMN 200 uM)	apparent KD of K4 kissing-loop reporter (input ligand: arginine 13.2 mM)	apparent KD of K4 kissing-loop reporter (input ligand: none)	apparent KD of K4 kissing-loop reporter [1]	apparent KD of K4 kissing-loop reporter [2]
CCAGGUGGAAAAGGAUAUCUAGGAGUGAUGUUCCAUAUGAAAUUAGUUUAUCACCAAACGUCGACCAGAGAAGGUUUCCCAAUUU [theeternabot_exclusion_KL_FMN_B_31]	0.246 µM	0.252 µM	0.287 µM	0.489 µM	0.254 µM
AAUAAAAUCACGGCCGCCACUAAUGCUAGUAUUAGCAGUGAUGUUGCUAUGUAUAUUUUAUUUAAUAGGACCGGGUGAAUAUUUA [#23 K4 Tryptophan B Exclusion]	0.332 µM	0.294 µM	0.346 µM	0.308 µM	0.224 µM
AAUGUUAGCAAAGGAUAUCUGAUGAGUGAUGUUUACGGACCGUUUGCGUUUCAUUACACGCAGCUCAGAGAAGGUUGGUGUGCAG [theeternabot_exclusion_KL_FMN_B_49]	1.23 µM	0.866 µM	1.18 µM	0.89 µM	0.961 µM
UUUAUAUUGUCGGCCGCCACUGGAUUAAUAUUUGUAUAAUCUAGUUCAAAGUGAUGUUUUGAGUCCAGGACCGGGACAUUUGUUA [JR_ExcTryptoB_Sub004]	0.67 µM	0.515 µM	0.536 µM	0.558 µM	0.445 µM
GGGCCAUGGUUUUUGCUAGUGAUGUUAGACCGAGGACCGGUACGGCCGCCACUCGGCAAGUCUUUCGUUAGAUCUCUGGGAAGUC [theeternabot_exclusion_KL_Trp_A_45]	0.81 µM	0.661 µM	1.11 µM	1.16 µM	0.578 µM
UUAGUCUAGAGAGGAUAUCAGUGAUGUUGAUAUCAAGAUCAUAGAUAGAAUUCUAUCUAUGAUCAAUGAGAAGGCUCUAGACAUU [AK1 Exc FMN B]	0.746 µM	0.141 µM	0.161 µM	0.155 µM	0.163 µM
AAUCCUUACGGAGUGAUGUUCCGUAGCGAUACCAGCCAUUGCGAUGGCCCUUGGCAGCGCUAUAAGCAUUGCUAUUAAGGGCCAA [Theo A Ex t7a]	0.134 µM	0.107 µM	0.124 µM	0.121 µM	0.126 µM
CGUUGGAGUGAUGUUCCAGGUUGUACGGAUACCAGCCAAGCCAGCGGCCCUUGGCAGCCGACUAUUGCAGUGAUGUUGUGAUGCC [Same State Theophylline A GF 3]	0.715 µM	0.539 µM	0.751 µM	0.772 µM	0.524 µM
AUAAACUUGCAGUGAUGUUGCAAGUAAGACUAGGAUAUCAGGAAGCUGAGAAGGAGUCAUCUCCUUCAAACAUCACUAUGAAGGA [whbob_SS_FMNA__2th177]	0.413 µM	0.245 µM	0.289 µM	0.328 µM	0.253 µM
UACUCUCCUCCUGAUACCAGAUAAAUAUUAAUACAUUAGUGAUGUUAAUGCCCAAACCCGAUCCCUUGGCAGCAGAAUAUGCAGG [theeternabot_sameState_KL_Theo_B_25]	0.152 µM	0.24 µM	0.202 µM	0.258 µM	0.126 µM
CACGAUGAAUUCUCUAGGAGUGAUGUUUUUCGAGGACCGGUACGGCCGCCACUCGGACCACGAGCGUGGUAGCGGCGAAAAGACU [qpmullin]	0.782 µM	0.464 µM	0.629 µM	0.443 µM	1.07 µM
AAUUGGCAGUGAUGUUGUCAAGGACAUACGAAGGAUAUAAGUGAAGUUAGAAGGUCGACCAUCACUUCUUUGCCAUUUGCAUGAC [theeternabot_exclusion_KL_FMN_A_20]	0.238 µM	0.214 µM	0.207 µM	0.243 µM	0.193 µM
AACUGUCAAGGACAACAUUACUGAAGUGAUACCAGCAUCGAAAGAUGCCCUUGGCAGCACUAACUUGCAGUGAUGUUGCAAGUAA [BrourdMod 3 - Jieux - Exclusion - Theophylline A]	0.207 µM	0.165 µM	0.184 µM	0.202 µM	0.19 µM
UGUGCCAACAGCGAUACCAGCCCGGCAGUGAUGUUGCCGGACGGAGUGAUGUUCCGGCAGGGCCCUUGGCAGCGCAGAAGCGCGA [Exclusion Theophylline B Gf 28]	0.215 µM	0.222 µM	0.261 µM	0.432 µM	0.202 µM
GCCAGAGCGCGAAGGAGCGCCGUGACAGGUUGCUGCCGUGGGCAGUGAUGUUGCUCAGUCUGGCAGGUAGGUCGCGUGCUCUGGC	0.196 µM	0.173 µM	0.205 µM	0.228 µM	0.219 µM
UUUAUUAAGACGGCCGCCACUGAAUCAUAGUGAUGUUAUGAUAAAAUUUUAGAUAAUAAUAACAGCAGGACCGGGUCAAUUAUUA [JR_SSTryptoB_Sub015]	0.2 µM	0.173 µM	0.208 µM	0.191 µM	0.182 µM

Sequence	apparent KD of K4 kissing-loop reporter (input ligand: FMN 200 uM)	apparent KD of K4 kissing-loop reporter (input ligand: arginine 13.2 mM)	apparent KD of K4 kissing-loop reporter (input ligand: none)	apparent KD of K4 kissing-loop reporter [1]	apparent KD of K4 kissing-loop reporter [2]
CUUUGGAGUGAUGUUCCAGGUUGUACGGAUACCAGCCAAGCCAGAGGCCCUUGGCAGCCGAGUAUUGCAGUGAUGUUGCGAUGGG [Same State Theophylline A GF 2]	0.304 µM	0.239 µM	0.282 µM	0.335 µM	0.261 µM
AAUAUAUAGUGAAGGAGCGCGAUAAGCAGUGAUGUUGCUUAGCUAUUAUUCAUUAUUUUUACGCAGGUAGGUCGCACUAUAUAUA [JR_ExcArginiB_Sub014]	0.138 µM	0.128 µM	0.144 µM	0.133 µM	0.139 µM
UGAUAAAGCAGUGAUGUUGCAAGAAAUGAUACCAGUUAAGAAAAGAACCCUUGGCAGCAUAAAGUGCGCUCUAAUGAGUGUGCUU [theophylline a same state]	0.141 µM	0.183 µM	0.156 µM	0.231 µM	0.126 µM
AAGCAUUCUUCGGAUUGCAGACCCGCUGAGGAGGAUAUGACGAAAGUCAGAAGGUUUCAGUGAUGUUGAGGCCUCCUCAAUGGUC [whbob_Ex_FMNA__2th183]	0.28 µM	0.259 µM	0.25 µM	0.255 µM	0.263 µM
UGUCAUUGGUCUGAUACCAGAAGAAAUCUGGAGUGAUGUUCCGAGUACGACAAAAGUCGCUUCCCUUGGCAGCAGACCGAUGACU [TheoBS 22 #SwitchBubble 13 #StaticStem]	0.235 µM	0.198 µM	0.198 µM	0.161 µM	0.207 µM
CGCCAGUGAUGUUGGCGCAGCUACCGGGAAGGAGCGCCGUAGUCGGCAGGUAGGUCGCCCGGGCAGUGAUGUUGCCUCAUACCGU [Exclusion Arginine A GF 21]	0.229 µM	0.247 µM	0.258 µM	0.347 µM	0.236 µM
ACAGAUGCUAGUGAUACCAGACUAGCACUACGUAAUAUGUCAAGUGAUGUUUGACAACUAGUCCCUUGGCAGCGCGAUACGUCUG [Theo B SS t2]	0.297 µM	0.353 µM	0.295 µM	0.305 µM	0.261 µM
AGACUACCACACUGUCAAUAGACAGUGGACUAGGAUAUGCUGAUAAGCAGAAGGAGUGAUGUUCCUGGGUAGUCAAUAAAAUAAU [FmnAX 13 G28+G67]	0.484 µM	0.366 µM	0.526 µM	0.696 µM	0.425 µM
AAGAGGACCAACAUCACUAGUCCUCGAAUACGAGGACCGGUACGGCCGCCACUCGAUAACUUGCAGUGAUGUUGCAAGUAAGAAU [(T)''-(K)'-(T)'-(T1)-(T2)-(K1)-(K2)_Design3]	0.369 µM	0.253 µM	0.307 µM	0.345 µM	0.439 µM
UACAUUGCAGUCUUCUUCGUCCUAGAAGACUAGGAUAUCAGGAAACUGAGAAGGAGUCUCUGCAGUGAUGUUGCAGCUAGGACGA [[K]'-[F2]'-[F1]'-[F1]-[F2]-[K1]-[K2]-[F]''_Design1]	0.128 µM	0.134 µM	0.103 µM	0.157 µM	0.126 µM
UGAUACCAGACGGCCGCCACUAGGACCGGGAGUGAUGUUCCCAAAUUAAAAUACUCGGCCGCCACUAGGACCGGGUCUGGUAUCU [TrypBX 26 #DoubleAptamer #SwitchBubble]	0.244 µM	0.269 µM	0.295 µM	0.36 µM	0.113 µM
UGACUGGACUGAAGGAGCGCGAAACUCCUAGUGAUGUUAGGAAAACGAGACAAAGUCUCGACGCAGGUAGGUCGCAGUCUAGUCU	0.125 µM	0.102 µM	0.103 µM	0.115 µM	0.135 µM
UGAUACCAGACGGCCGCCACUGGGACCGGGAGUGAUGUUCCGAAAAUUAAAUGCUCGGCCGCCACUAGGACCGGGUCUGGUAUCU [TrypBX 29 #DoubleAptamer #SwitchBubble]	0.727 µM	0.407 µM	0.446 µM	0.231 µM	0.453 µM
CCUUCCACAGAAGGAUAUCGGAGUGAUGUUCCCAAGCAGACCUCAAAGUGGGUAGCCAGUCAGUUCCGAGAAGGUCUGCAGCGAG [theeternabot_exclusion_KL_FMN_B_26]	0.25 µM	0.28 µM	0.271 µM	0.37 µM	0.189 µM
GGAUAGGACAGAGGAUAUCUCUGAGGCAAGAAAACUUGUCUCUAAAGGGAUGACUCAGUGAUGUUGAGAGAAGGCUGUCCUAUCG [FmnBX 11 - #SwitchBubble #StaticStem]	0.295 µM	0.141 µM	0.154 µM	0.14 µM	0.149 µM

Source: the supplement of paper PMC9170038
